One block for each molecule: values may come before it.
Columns and labels:
[1] = molecular target: human Mpl (full length, expressed on BaF3 cells) (human) (UniProt P40238); test: cell-based or functional assay
[2] = molecular target: T1, human Mpl (full length, expressed on BaF3 cells) (human, UniProt P40238 26-635); test: cell-based or functional assay
T1 sequence: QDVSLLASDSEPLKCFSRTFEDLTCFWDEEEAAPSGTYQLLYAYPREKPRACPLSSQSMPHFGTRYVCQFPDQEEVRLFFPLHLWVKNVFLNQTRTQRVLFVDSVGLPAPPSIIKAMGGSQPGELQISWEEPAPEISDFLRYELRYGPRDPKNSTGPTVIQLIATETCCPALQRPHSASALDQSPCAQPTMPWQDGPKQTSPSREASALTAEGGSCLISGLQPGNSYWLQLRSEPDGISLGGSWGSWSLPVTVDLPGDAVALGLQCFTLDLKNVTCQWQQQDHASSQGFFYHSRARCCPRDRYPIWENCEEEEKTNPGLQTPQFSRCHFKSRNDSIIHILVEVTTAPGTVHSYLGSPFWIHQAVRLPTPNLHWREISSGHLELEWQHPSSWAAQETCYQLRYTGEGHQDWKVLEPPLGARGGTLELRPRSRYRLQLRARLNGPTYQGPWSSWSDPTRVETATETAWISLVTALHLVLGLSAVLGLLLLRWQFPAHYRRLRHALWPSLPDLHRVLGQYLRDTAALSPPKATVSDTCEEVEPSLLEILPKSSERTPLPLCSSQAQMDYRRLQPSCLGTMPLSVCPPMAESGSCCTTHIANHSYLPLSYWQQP

BaF-human Mpl EC50 (cell proliferation, WST-8) [1]: 0.076 nM
Molecule: recombinant human TPO (rhTPO, R&D) (from UniProt P40225 22-353) (ligand)

TPO-like agonist activity, BaF-human Mpl EC50 (cell proliferation, WST-8) [2]: 0.027 nM
B1: VB22B sc(Fv)2 (scFv)
scFv: QVQLQQSGPELVKPGASVKISCKASGYAFTNSWMNWVKQRPGKGLEWIGRIYPGDGETIYNGKFRVKATLTADKSSSTAYMDISSLTSEDSAVYFCARGYDDYSFAYWGQGTLVTVSAGGGGSGGGGSGGGGSDIVMTQAAPSIPVTPGESVSISCRSSKSLLHSNGNTYLYWFLQRPGQSPQLLIYRMSNLASGVPDRFSGSGSGTAFTLRISRVEAEDVGVYYCMQHIEYPFTFGSGTKLEIKGGGGSGGGGSGGGGSQVQLQQSGPELVKPGASVKISCKASGYAFTNSWMNWVKQRPGKGLEWIGRIYPGDGETIYNGKFRVKATLTADKSSSTAYMDISSLTSEDSAVYFCARGYDDYSFAYWGQGTLVTVSAGGGGSGGGGSGGGGSDIVMTQAAPSIPVTPGESVSISCRSSKSLLHSNGNTYLYWFLQRPGQSPQLLIYRMSNLASGVPDRFSGSGSGTAFTLRISRVEAEDVGVYYCMQHIEYPFTFGSGTKLEIK

TPO-like agonist activity, BaF-human Mpl EC50 (cell proliferation, WST-8) [2]: 0.061 nM
B2: VB22B Diabody (scFv)
scFv: QVQLQQSGPELVKPGASVKISCKASGYAFTNSWMNWVKQRPGKGLEWIGRIYPGDGETIYNGKFRVKATLTADKSSSTAYMDISSLTSEDSAVYFCARGYDDYSFAYWGQGTLVTVSAGGGGSDIVMTQAAPSIPVTPGESVSISCRSSKSLLHSNGNTYLYWFLQRPGQSPQLLIYRMSNLASGVPDRFSGSGSGTAFTLRISRVEAEDVGVYYCMQHIEYPFTFGSGTKLEIK

TPO-like agonist activity, BaF-human Mpl EC50 (cell proliferation, WST-8) [2]: > 30 nM
B3: anti-human Mpl antibody VB22B IgG (antibody, V domains shown)
VH: QVQLQQSGPELVKPGASVKISCKASGYAFTNSWMNWVKQRPGKGLEWIGRIYPGDGETIYNGKFRVKATLTADKSSSTAYMDISSLTSEDSAVYFCARGYDDYSFAYWGQGTLVTVSA
VL: DIVMTQAAPSIPVTPGESVSISCRSSKSLLHSNGNTYLYWFLQRPGQSPQLLIYRMSNLASGVPDRFSGSGSGTAFTLRISRVEAEDVGVYYCMQHIEYPFTFGSGTKLEIK

Source: patent publication WO2005107784A1 (dated 2005)
